Experimental data as given in patent publication US20230192888A1.

Columns and labels:
[1] = target: human recombinant MMP-1 (human) (UniProt P03956); assay: sandwich ELISA; capture MAB901, detection 1-8A12-HRP; MMP-1 2.5 ng/ml
[2] = target: endogenous MMP-1 in clinical saliva samples (human) (UniProt P03956); assay: sandwich ELISA; capture MAB901, detection 1-8A12-HRP; saliva sample 5 (MMP-1 285.6 pg/ml)
[3] = target: human recombinant MMP-1 (human) (UniProt P03956); assay: sandwich ELISA; capture MAB901, detection 1-8A12-HRP; MMP-1 1.25 ng/ml
[4] = target: endogenous MMP-1 in clinical saliva samples (human) (UniProt P03956); assay: sandwich ELISA; capture MAB901, detection 1-8A12-HRP; saliva sample 4 (MMP-1 6.4 pg/ml)
[5] = target: endogenous MMP-1 in clinical saliva samples (human) (UniProt P03956); assay: sandwich ELISA; capture MAB901, detection 1-8A12-HRP; saliva sample 3 (MMP-1 1503.2 pg/ml)
[6] = target: human recombinant MMP-1 (human) (UniProt P03956); assay: sandwich ELISA; capture MAB901, detection 1-8A12-HRP; MMP-1 5 ng/ml
[7] = target: endogenous MMP-1 in clinical saliva samples (human) (UniProt P03956); assay: sandwich ELISA; capture MAB901, detection 1-8A12-HRP; saliva sample 1 (MMP-1 14821.9 pg/ml)
[8] = target: endogenous MMP-1 in clinical saliva samples (human) (UniProt P03956); assay: sandwich ELISA; capture MAB901, detection 1-8A12-HRP; saliva sample 2 (MMP-1 5041.1 pg/ml)
[9] = target: human recombinant MMP-1 (human) (UniProt P03956); assay: sandwich ELISA; capture MAB901, detection 1-8A12-HRP; MMP-1 0.156 ng/ml
[10] = target: endogenous MMP-1 in clinical saliva samples (human) (UniProt P03956); assay: sandwich ELISA; capture MAB901, detection 1-8A12-HRP; saliva sample 7 (MMP-1 120.6 pg/ml)
[11] = target: endogenous MMP-1 in clinical saliva samples (human) (UniProt P03956); assay: sandwich ELISA; capture MAB901, detection 1-8A12-HRP; saliva sample 6 (MMP-1 27.1 pg/ml)
[12] = target: human recombinant MMP-1 (human) (UniProt P03956); assay: sandwich ELISA; capture MAB901, detection 1-8A12-HRP; MMP-1 0.625 ng/ml
[13] = target: human recombinant MMP-1 (human) (UniProt P03956); assay: sandwich ELISA; capture MAB901, detection 1-8A12-HRP; MMP-1 10 ng/ml
[14] = target: endogenous MMP-1 in clinical saliva samples (human) (UniProt P03956); assay: sandwich ELISA; capture MAB901, detection 1-8A12-HRP; saliva sample 8 (MMP-1 0 pg/ml)
[15] = target: human recombinant MMP-1 (human) (UniProt P03956); assay: sandwich ELISA; capture MAB901, detection 1-8A12-HRP; MMP-1 0.313 ng/ml

OD value [1]: 0.544 OD
OD value [2]: 0.045 OD
OD value [3]: 0.258 OD
OD value [4]: -0.019 OD
OD value [5]: 0.11 OD
OD value [6]: 1.19 OD
OD value [7]: 2.69 OD
OD value [8]: 0.883 OD
OD value [9]: 0.027 OD
OD value [10]: 0.006 OD
OD value [11]: 0.003 OD
OD value [12]: 0.119 OD
OD value [13]: 2.34 OD
OD value [14]: -0.01 OD
OD value [15]: 0.056 OD
Substance: MAB901 (antibody)
